Laboratory results reported in publication PMC4260256, “A novel serine hydroxymethyltransferase from Arthrobacter nicotianae: characterization and improving catalytic efficiency by rational design” (BMC Biotechnology, 2014).

Test system: NC(C(=O)O)C(O)c1ccccc1
Assay: purified protein
Details: pH 7.8; 40.0 °C

## AnSHMT (Glutamicibacter nicotianae)
  Km: 57.86 ± 0.07 mM
  kcat/Km: 27.7 M⁻¹ s⁻¹
